The values that follow come from patent US20140105905A1 (Amgen, published 2014).

For assay [1], the target named is T1, recombinant human Interleukin-8 (human, UniProt P10145 28-99).
T1 construct: also called rhIL-8; IL-8
T1 sequence (looked up): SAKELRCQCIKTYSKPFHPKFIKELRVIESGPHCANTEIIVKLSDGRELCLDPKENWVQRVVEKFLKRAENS
As to the kind of experiment: KinExA equilibrium in solution, 36 h, mAb 25 pM. As to the method:
(§1) The experiments with KinExA were performed using an automated flow immunoassay system, KinExA 3000 [Ohmura et al., Anal. Chem. 73:3392, 2001] in which rhIL-8-coupled beads served as the solid phase. […] Antigen/antibody complexes were incubated at RT for 36 h to 144 h to allow equilibrium to be reached. The mixture was drawn through the rhIL-8-coupled beads to accumulate unbound antibody. The captured anti-hIL-8 mAb is directly proportional to the remaining free binding sites and was detected using solutions containing Cy5-conjugated anti-human secondary antibody in sample buffer. The concentrations, volumes, and flow rates of the secondary antibody solutions were varied to optimize the signal to noise ratio in each experiment. The bound signals were converted into relative values as a proportion of control in the absence of rhIL-8. The equilibrium dissociation constant (Kd) was obtained from nonlinear regression analysis of the data using a one-site homogeneous binding model contained within the software [Blake et Al., Anal. Biochem. 272:123, 1999; Jones et al., Bioconjug Chem 13:408, 2002]. The software calculates the Kd and determines the 95% confidence interval by fitting the data points to a theoretical Kd curve. The 95% confidence interval is given as Kd low and Kd high.
A proportionate amount of free mAb present in the equilibrium mixture was measured by flowing 0.25 ml to 3 ml of the sample on rhIL-8 coupled to CNBr-activated Sepharose beads and detected using 1.0 ml of 1.7 μg/ml of Cy5-labeled goat anti-human IgG Fcγ fragment-specific secondary antibody. Each sample was run in triplicate. The Kd was calculated by the KinExA software and the 95% confidence interval is given as the Kd range.
On the technique in general: A kinetic exclusion assay measures how much of one partner remains free in solution.

In assay [2] the target is T1, recombinant human Interleukin-8. The assay can be described thus: KinExA equilibrium in solution, 36 h, mAb 10 pM. As to the method: as §1, with “The software calculates the Kd and determines the 95% confidence interval by fitting the data points to a theoretical Kd curve. The 95% confidence interval is given as Kd low and Kd high.” left out
(§2) A proportionate amount of free mAb present in the equilibrium mixture was measured by flowing 0.25 ml to 3 ml of the sample on rhIL-8 coupled to CNBr-activated Sepharose beads and detected using 1.0 ml of 1.7 μg/ml of Cy5-labeled goat anti-human IgG Fcγ fragment-specific secondary antibody. […]

Assay [3] has the same target. The assay can be described thus: KinExA equilibrium in solution, 36 h, mAb 100 pM. The method, then:
as §1, with “The software calculates the Kd and determines the 95% confidence interval by fitting the data points to a theoretical Kd curve. The 95% confidence interval is given as Kd low and Kd high.” left out
as §2

Assay [4] has the same target. As to the kind of experiment: KinExA equilibrium in solution, 36 h, mAb 200 pM. As to the method:
as §1, with “The software calculates the Kd and determines the 95% confidence interval by fitting the data points to a theoretical Kd curve. The 95% confidence interval is given as Kd low and Kd high.” left out
as §2

A word on the Kd: it is the concentration at which binding is half-saturated.

B1: anti-hIL-8 mAb 1080 (antibody, human IgG2, V domains shown)
VH: QVQLQQWGAGLLKPSESLSLTCAVYGGSFFSGYYWSWIRQPPGKGLEWIGEITHSGNTNYNPSLKSRVSISVDTSTNQFSLKLSSVTAADTAVYYCGRGGAEVGFDYWGQGTLVTVSS
VL: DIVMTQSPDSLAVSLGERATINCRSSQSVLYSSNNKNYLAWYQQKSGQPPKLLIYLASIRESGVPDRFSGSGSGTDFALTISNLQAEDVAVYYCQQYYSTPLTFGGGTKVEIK
Turning to B1, the equilibrium dissociation constant (Kd) in assay [1] worked out at 0.63 nM.

B2: anti-hIL-8 mAb 33 (antibody, human IgG2, V domains shown)
VH: QVQLQQWGAGLLKPSETLSLTCAVYGGFFSGYYWSWIRQPPGKGLEWIGEINHSGSTNYNPSLKSRVTISVDTSKNQFSLKLISVTAADTAVYYCARGSAAEAFDIWGQGTMVTVSS
VL: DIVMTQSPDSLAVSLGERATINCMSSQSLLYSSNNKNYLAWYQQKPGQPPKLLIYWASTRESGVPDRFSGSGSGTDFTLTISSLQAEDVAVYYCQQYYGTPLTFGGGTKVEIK
notes: also called antibody number 33
On to B2, for which the Kd in assay [2] was 0.28 nM.

B3: anti-hIL-8 mAb 1093 (antibody, human IgG2, V domains shown)
VH: QVQLQQWGAGLLKPSETLSLTCAVFGGSFSGYYWTWIRQPPGKGLEWIGEIIHHGSTNYSPSLKSRVTISADTSKSQFSLRLSSVTAADTAVYYCARGGAAAGLDSWGQGTLVTVSS
VL: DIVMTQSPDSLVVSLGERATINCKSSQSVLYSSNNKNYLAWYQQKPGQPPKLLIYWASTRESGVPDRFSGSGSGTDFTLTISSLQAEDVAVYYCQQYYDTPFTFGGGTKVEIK
notes: also called antibody number 1093
For the molecule B3, the Kd in assay [3] amounted to 0.2 nM.

B4: anti-hIL-8 mAb 142 (antibody, human IgG2, V domains shown)
VH: QVQLVQSGAEVKKPGASVKVSCKASGYTFTGYYMHWVRQAPGQGLEWMGWINSNSGGTNYSQKFQGRVTMTRDTSISTVYMELSRLRSDDTAVYYCASGYSYGYRYYYYGMDVWGQGTTVTVSS
VL: DIQMTQSPSSLSASVGDRVTITCRASQGISNSLAWYQQKPGKVPNLLIYAASTLQSGVPSRFSGSGSGTDFTLTISSLQPEDVATYYCQKYNSVPLTFGGGTKVEIK
notes: also called antibody number 142
With B4, the Kd in assay [1] amounted to 0.4 nM.

B5: anti-hIL-8 mAb 203 (antibody, human IgG2, V domains shown)
VH: QVQLVQSGAEVKKPGASVKVSCKASGYTFTGYYIHWVRQAPGQGLEWMGWINSNSGGTNFAQKFQGRVTMTRDTSISTAYMELSRLRPDDTAVYYCASGYRYGYRYYYYGMDVWGQGTTVTVSS
VL: DIQMTQSPSSLSASVGDRVTITCRASQGISNSLAWYQQKPGKVPKLLIYAASTLQSGVPSRFSGSGSGTDFTLTISSLQPEDVATYYCQKYNSVPLTFGGGTKVEIN
notes: also called antibody number 203
As for B5, the equilibrium dissociation constant (Kd) in assay [1] was found to be 0.19 nM.

B6: anti-hIL-8 mAb 469 (antibody, human IgG2, V domains shown)
VH: EVQLLESGGGLVQPGGSLRLSCAASGFTFSSYVMSWVRQAPGKGLEWVSAINNSGGSTDYADSVKGRFTISRDNSKNTLYLQMNSLRAEDTAVYYCAKEGRFLEWSLYGLDVWGQGTTVTVSS
VL: DIQMTQSPSSLSASVGDRVTIACRASQGIRNDLGWYQQKPGKAPKRLIYAASSLQSGVPSRFGGSGSGTEFTLTISSLQPEDFATYYCLQHNSYPRTFGQGTKVEIK
notes: also called antibody number 469
On to B6, for which the equilibrium dissociation constant (Kd) in assay [4] came out at 0.87 nM.
